Article PMC3290569, “Macro-to-Micro Structural Proteomics: Native Source Proteins for High-Throughput Crystallization” (PLoS ONE, 2012)

Molecular target: the molecule itself
Assay: crystal structure; novel structures of native source E. coli proteins, solved by molecular replacement and refined; oligomer seen in the crystal

Protein	stoichiometry N
6-phospho-beta-glucosidase (BglA) (enzyme, Escherichia coli, UniProt Q46829 1-479, looked up, 6-phospho-beta-glucosidase BglA, Escherichia coli, native source protein; source: purified from E. coli DH5α cells (CaptoQ, phenyl sepharose, MonoQ)) MIVKKLTLPKDFLWGGAVAAHQVEGGWNKGGKGPSICDVLTGGAHGVPREITKEVLPGKYYPNHEAVDFYGHYKEDIKLFAEMGFKCFRTSIAWTRIFPKGDEAQPNEEGLKFYDDMFDELLKYNIEPVITLSHFEMPLHLVQQYGSWTNRKVVDFFVRFAEVVFERYKHKVKYWMTFNEINNQRNWRAPLFGYCCSGVVYTEHENPEETMYQVLHHQFVASALAVKAARRINPEMKVGCMLAMVPLYPYSCNPDDVMFAQESMRERYVFTDVQLRGYYPSYVLNEWERRGFNIKMEDGDLDVLREGTCDYLGFSYYMTNAVKAEGGTGDAISGFEGSVPNPYVKASDWGWQIDPVGLRYALCELYERYQRPLFIVENGFGAYDKVEEDGSINDDYRIDYLRAHIEEMKKAVTYDGVDLMGYTPWGCIDCVSFTTGQYSKRYGFIYVNKHDDGTGDMSRSRKKSFNWYKEVIASNGEKL	2
Glutamate dehydrogenase (GDH) (enzyme, Escherichia coli, UniProt P00370 1-447, looked up, glutamate dehydrogenase, Escherichia coli, native source protein; hexamer (dimer of trimers); source: purified from E. coli DH5α cells (CaptoQ, phenyl sepharose, MonoQ)) MDQTYSLESFLNHVQKRDPNQTEFAQAVREVMTTLWPFLEQNPKYRQMSLLERLVEPERVIQFRVVWVDDRNQIQVNRAWRVQFSSAIGPYKGGMRFHPSVNLSILKFLGFEQTFKNALTTLPMGGGKGGSDFDPKGKSEGEVMRFCQALMTELYRHLGADTDVPAGDIGVGGREVGFMAGMMKKLSNNTACVFTGKGLSFGGSLIRPEATGYGLVYFTEAMLKRHGMGFEGMRVSVSGSGNVAQYAIEKAMEFGARVITASDSSGTVVDESGFTKEKLARLIEIKASRDGRVADYAKEFGLVYLEGQQPWSLPVDIALPCATQNELDVDAAHQLIANGVKAVAEGANMPTTIEATELFQQAGVLFAPGKAANAGGVATSGLEMAQNAARLGWKAEKVDARLHHIMLDIHHACVEHGGEGEQTNYVQGANIAGFVKVADAMLAQGVI	6
